Tested on: full-length NEDD4L
Assay: FP binding of Alexa Fluor-tagged recombinant AMOT1-300 to full-length recombinant NEDD4L
Method: A labeled peptide (GGG-ALEXA488) was added to AMOT1-300 (which carried a sortase tag) by transpeptidation with sortase. Typical reactions contained 10 to 50 μM AMOT1-300, 30 to 150 μM GGG-ALEXA488 peptide and 20 μM sortase enzyme in the reaction buffer (50 mM Tris [pH 7.5], 150 mM NaCl and 10 mM CaCl2). Reactions were allowed to proceed at either room temperature or 4 °C until the reaction was complete (typically 1–4 h). AMOT1-300–ALEXA488 was then purified by ion-exchange chromatography (SP HiTrap) as described above.
Each dilution series was performed at least in triplicate. […] The mean Kd values are reported as mean ± SEM.

B1: AMOT1-300: Alexa Fluor 488-tagged recombinant AMOT construct (residues 1–300) spanning all three PPxY motifs, labeled by sortase transpeptidation (protein)
chain: MRNSEEQPSGGTTVLQRLLQEQLRYGNPSENRSLLAIHQQATGNGPPFPSGSGNPGPQSDVLSPQDHHQQLVAHAARQEPQGQEIQSENLIMEKQLSPRMQNNEELPTYEEAKVQSQYFRGQQHASVGAAFYVTGVTNQKMRTEGRPSVQRLNPGKMHQDEGLRDLKQGHVRSLSERLMQMSLATSGVKAHPPVTSAPLSPPQPNDLYKNPTSSSEFYKAQGPLPNQHSLKGMEHRGPPPEYPFKGMPPQSVVCKPQEPGHFYSEHRLNQPGRTEGQLMRYQHPPEYGAARPAQDISLPL
modifications: GGG-ALEXA488 peptide added by transpeptidation with sortase; left off: His, end not stated, state not stated | sortase tag, end not stated, kept
notes: Alexa Fluor 488-tagged recombinant AMOT construct (residues 1–300) spanning all three PPxY motifs, labeled by sortase transpeptidation
fold tighter binding than the isolated AMOT PPxY1-NEDD4L WW3 complex (AMOT1-300-full-length NEDD4L vs PPxY1-WW3): 1.5 fold
apparent dissociation constant, AMOT1-300 with full-length NEDD4L (Fig. 3C/E, FP, Alexa Fluor 488-tagged AMOT1-300, full isotherm not sampled because of limited solubility of full-length NEDD4L): 2.7 ± 0.8 µM

— PMC8368996, “Interactions between AMOT PPxY motifs and NEDD4L WW domains function in HIV-1 release” (The Journal of Biological Chemistry, 2021)
